Experimental data: patent US20230016396A1

Tests used:
[1] = biological target: T1, M15-L-P1-AR target polypeptide with P1 = A
T1 chain: LAAR

[2] = biological target: T2, M15-L-P1-AR target polypeptide with P1 = M
T2 chain: LMAR

[3] = biological target: T3, M15-L-P1-AR target polypeptide with P1 = I
T3 chain: LIAR

[4] = biological target: T4, M15-L-P1-AR target polypeptide with P1 = L
T4 chain: LLAR

[5] = biological target: T5, M15-L-P1-AR target polypeptide with P1 = V
T5 chain: LVAR

[6] = biological target: T6, M15-L-P1-AR target polypeptide with P1 = Q
T6 chain: LQAR

[7] = biological target: T7, M15-L-P1-AR target polypeptide with P1 = E
T7 chain: LEAR

[8] = biological target: T8, M15-L-P1-AR target polypeptide with P1 = D
T8 chain: LDAR

[9] = biological target: T9, M15-K(biotin)-AAR peptide (SEQ ID NO: 12)
T9 chain: KAAR

B1: M15-L_Z001 (first selected modified cleavase) (protein)
chain: MHKTRLVAALAAALATLAPAAWADEGMWVPQQLPEIAGALKKAGLKLDPKQLSDLTGDPMGAVVSLGGCTGSFVSPQGLVATNHHCAYGAIQLNSTPEKNLIKDGFNAPTQADELSAGPNARIYVLEGITDVTAQAKAAMAAAGNDPVARANALEAFEKKITSDCEAEPGYRCRVYSFMGGITYRLFKNLEIKDVRLVYAPPSSVGKFGGDIDMGMWPTHTGDFSFYRAYVGKDGKPAPYSKDNVPYRPKHWLKIADTPLGEGDFVMVAGYPGRTDRYALVAEFENTQNWLYPAISKAYKDQIALVEAAAKDNPEIAVKYAAALAGWNRTSKNFDGQLEGFKRNDVLAIKRREEAAVLEWLRARGKAGTPALEAHAALVKLVADTARTQERDLVLGSFNRTGIIGVAVNLYRLAIERQKPDAEREPGYQQRDLPVIEGSLKQMERRYVPAMDRQLRAYWLDRYVALPAAQHVAAVDAWLGGSDKAAAEAALARLDQSRLGSLEERLKWFNADRAAFEASTDPAIQYAVAVMPTLLAMEQQAKTRYGVALEARPRYLQAVVDYKKSKGQAVYPDANSTLRITYGHVKGYTGLNGKVYTPFTTLEEVAAKETGVEPFDNPKALLEAVAAKRYAGLADARLGTVPVNFLADLDITGGNSGSPVLDANGRLVGLAFAGTLESVASNWVFDPVLTRMISVDQRYMRWIMQEVMPAPQLLEELGVPPRQ
With B1 as the protein, how does the “cleavage of the M15-L-labeled P1 residue from the polypeptide” value (“cleavage of the M15-L-labeled P1 residue” for short) [1] read?
The value was “provided 100% cleavage for polypeptides with the following M15-L-labeled P1 residues: A, I, L, M, Q, V”.

What about the “cleavage of the M15-L-labeled P1 residue” value [2] of the same protein?
The value was “provided 100% cleavage for polypeptides with the following M15-L-labeled P1 residues: A, I, L, M, Q, V”.

And the “cleavage of the M15-L-labeled P1 residue” value [3]?
The value was “provided 100% cleavage for polypeptides with the following M15-L-labeled P1 residues: A, I, L, M, Q, V”.

What about the “cleavage of the M15-L-labeled P1 residue” value [4] of the same protein?
Its value is “provided 100% cleavage for polypeptides with the following M15-L-labeled P1 residues: A, I, L, M, Q, V”.

What about the “cleavage of the M15-L-labeled P1 residue” value [5] of the same protein?
Its value is “provided 100% cleavage for polypeptides with the following M15-L-labeled P1 residues: A, I, L, M, Q, V”.

What about the “cleavage of the M15-L-labeled P1 residue” value [6] of the same protein?
Its value is “provided 100% cleavage for polypeptides with the following M15-L-labeled P1 residues: A, I, L, M, Q, V”.

B2: M15-L_Z002 (protein)
chain: MHKTRLVAALAAALATLAPAAWADEGMWVPQQLPEIAGALKKAGLKLDPKQLSDLTGDPMGAVVSLGGCTGSFVSPQGLVATNHHCAYGAIQLNSTPEKNLIKDGFNAPTQADELSAGPNARIYVLEGITDVTAQAKAAMAAAGNDPVARANALEAFEKKITSDCEAEPGYRCRVYSFMGGITYRLFKNLEIKDVRLVYAPPSSVGKFGGDIDMGMWPTHTGDFSFYRAYVGKDGKPAPYSKDNVPYRPKHWLKIADTPLGEGDFVMVAGYPGRTDRYALVAEFENTQNWLYPAISKAYKDQIALVEAAAKDNPEIAVKYAAALAGWNRTSKNFDGQLEGFKRNDVLAIKRREEAAVLEWLRARGKAGTPALEAHAALVKLVADTARTQERDLVLGSFNRTGIIGVAVNLYRLAIERQKPDAEREPGYQQRDLPVIEGSLKQMERRYVPAMDRQLRAYWLDRYVALPAAQHVAAVDAWLGGSDKAAAEAALARLDQSRLGSLEERLKWFNADRAAFEASTDPAIQYAVAVMPTLLAMEQQAKTRYGVALEARPRYLQAVVDYKKSKGQAVYPDANSTLRITYGHVKGYTGLNGKVYTPFTTLEEVAAKETGVEPFDNPKALLEAVAAKRYAGLADARLGTVPVNFLADLDITGGNSGSPVLDANGRLVGLAFAGTLESVASNWVFDPVLTRMISVDQRYMRWIMQEVMPAPQLLEELGVPPRQ
Which “cleavage profile (cleavage efficiency)” value [7] does the source give for B2 here?
Its value is “M15-L_Z002, having specificity towards D and E in the P1 position”.

What about the “cleavage profile (cleavage efficiency)” value [8] of the same protein?
Its value is “M15-L_Z002, having specificity towards D and E in the P1 position”.

B3: engineered dipeptidyl peptidase clone (SEQ ID NO: 6) derived from dipeptidyl peptidase from Thermomonas hydrothermalis (protein)
chain: DEGMWVPQQLPEIAGALKKAGLKLDPKQLSDLTGDPMGAVVSLGGCTGSFVSPQGLVATNHHCAYGAIQLNSTPEKNLIKDGFNAPTQADELSAGPNARIYVLEGITDVTAQAKAAMAAAGNDPVARANALEAFEKKITSDCEAEPGYRCRVYSFMGGITYRLFKNLEIKDVRLVYAPPSSVGKFGGDIDMGMWPTHTGDFSFYRAYVGKDGKPAPYSKDNVPYRPKHWLKIADTPLGEGDFVMVAGYPGRTDRYALVAEFENTQNWLYPAISKAYKDQIALVEAAAKDNPEIAVKYAAALAGWNRTSKNFDGQLEGFKRNDVLAIKRREEAAVLEWLRARGKAGTPALEAHAALVKLVADTARTQERDLVLGSFNRTGIIGVAVNLYRLAIERQKPDAEREPGYQQRDLPVIEGSLKQMERRYVPAMDRQLRAYWLDRYVALPAAQHVAAVDAWLGGSDKAAAEAALARLDQSRLGSLEERLKWFNADRAAFEASTDPAIQYAVAVMPTLLAMEQQAKTRYGVALEARPRYLQAVVDYKKSKGQAVYPDANSTLRITYGHVKGYTGLNGKVYTPFTTLEEVAAKETGVEPFDNPKALLEAVAAKRYAGLADARLGTVPVNFLADLDITGGNSGSPVLDANGRLVGLAFAVTLESVASNWVFDPVLTRMISVDQRYMRWIMQEVMPAPQLLEELGVPPRQ
For B3, which “percentage of conversion to cleavage product (HPLC, UV absorbance at 254 nm)” value [9] is on record?
Its value is “about 10% of the model peptide was converted to the cleavage product, M15-K(biotin)-A”.
